The nature of this data set: protein stability index of a GFP-peptide fusion (GPS, HEK-293T) (PSI 1-6); higher = more stable.
Where [1] appears, read: treatment: DMSO, c terminus: a fixed tail appended.
[2] abbreviates: treatment: MLN4924 1 uM, 8 h, c terminus: a fixed tail appended.
The mark [3] stands for this setting: treatment: DMSO, c terminus: native.
Where [4] appears, read: treatment: MLN4924 1 uM, 8 h, c terminus: native.

± gives the standard deviation.
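Note: 24-mer peptide tiles fused after GFP, lentivirally expressed, FACS-sorted into six equal bins by GFP/DsRed ratio, decoded by Illumina sequencing, PSI is the read-weighted mean bin number.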

As to LMDVTGGPFDLMSRRVIAANNRIL [IMPA1], the protein stability index is, setting by setting: under setting [1], 2.75 ± 0.17; under setting [2], 2.69 ± 0.2.

For the sequence RSSHLVIHERTHERERLYPFSECG [ZNF263], the protein stability index is, setting by setting: under setting [1], 2.93 ± 0.21; under setting [2], 3.25 ± 0.3.

For the sequence MDTQFTIRARELQNIYKCIMLKNI [IQUB], the protein stability index is, setting by setting: under setting [1], 2.27 ± 0.24; under setting [2], 2.37 ± 0.3.

With NDNSPSFATPEREMRISESAASGA [PCDHGC5], the protein stability index turned out to be 5.21 ± 0.17 under setting [1] and 5.22 ± 0.089 under setting [2].

As for RVYFLKGGYETFYSEYPECCVDVK [DUSP5], the protein stability index came out at 2.09 ± 0.23 under setting [1] and 2.46 ± 0.55 under setting [2].

As for AEALFDFTGNSKLELNFKAGDVIF [NCF4], the protein stability index is, setting by setting: under setting [1], 2.05 ± 0.29; under setting [2], 2.23 ± 0.27.

Turning to DLEMKEEEEISETGELVGPFVSAM [ZBED2], the protein stability index by setting is: under setting [1], 5.29 ± 0.27; under setting [2], 5.27 ± 0.12.

Turning to PMVRKRSVSNSTQTSSSSSQSETS [DLC1], the protein stability index worked out at 5.26 ± 0.21 under setting [1] and 5.3 ± 0.33 under setting [2].

LGPLLSEPLVLYNQNLSNRPSFNR [MYOZ1]: the protein stability index under setting [1] worked out at 2.62 ± 0.13 and the protein stability index under setting [2] was found to be 2.95 ± 0.49.

Consider PALSQLVNLYLGRSHFLWKEPATM [TCF25], for which the protein stability index by setting is: under setting [1], 3.25 ± 0.75; under setting [2], 3.02 ± 0.9.

Take SELRRTMQALEIELQSQLSMKASL [KRT17]: the protein stability index is, setting by setting: under setting [1], 2.46 ± 0.21; under setting [2], 2.23 ± 0.2.

Take NIRQKVKELVEFAQDDDRLREERK [CLINT1]: the protein stability index under setting [1] is 4.55 ± 0.17 and the protein stability index under setting [2] came to 5.01 ± 0.19.

For the sequence TLLLQGHHDKVQSLCYLQLTRQLV [WDFY1], the protein stability index is, setting by setting: under setting [1], 2.8 ± 0.43; under setting [2], 2.76 ± 0.38.

Regarding SMRKIVATWMLEVCEEQKCEEEVF [CCND1], the protein stability index by setting is: under setting [1], 2.3 ± 0.25; under setting [2], 2.47 ± 0.17.

Turning to PSGEMVKSTTSLTSSSTSGSSDKV [MLH1], the protein stability index stood at 5.47 ± 0.39 under setting [1] and 5.59 ± 0.17 under setting [2].

As to YFAIKQEVVTPDNMCMGRTSRGKL [ETS1], the protein stability index was 3.5 ± 0.23 under setting [1] and 3.49 ± 0.22 under setting [2].

For the sequence IQKLTQIETGENVTGMELEFKRLA [PTPRD], the protein stability index runs as follows: under setting [1], 3.51 ± 0.08; under setting [2], 3.55 ± 0.43.

In the case of EDDPLLDAQLLPHHSLQAHFRPRF [TMEM192], the protein stability index is, setting by setting: under setting [1], 3.57 ± 0.35; under setting [2], 3.53 ± 0.15.

Take GDVCYADVYRDGTGVVEFVRKEDM [SRSF1]: the protein stability index is, setting by setting: under setting [1], 4.22 ± 0.26; under setting [2], 4.37 ± 0.042.

For RAGLDLPTIDTGYDSQPQDVLGIR [TRAF3IP2], the protein stability index is, setting by setting: under setting [1], 4.25 ± 0.37; under setting [2], 4.29 ± 0.18.

For LRSFCAWQRGLNTPEDSDPDHFDT [ADAMTS4], the protein stability index runs as follows: under setting [1], 4.12 ± 0.27; under setting [2], 4.24 ± 0.2.

In the case of GVGTSMEGASPLSERCQRQLQSLC [FANCE], the protein stability index is 3.9 ± 0.16 under setting [1] and 3.78 ± 0.15 under setting [2].

LYELASLKRAFEAANLPALVLKIM [NEK8]: the protein stability index is, setting by setting: under setting [1], 2.33 ± 0.36; under setting [2], 2.12 ± 0.34.

For the sequence LLIEGRSVNEHTEEGESLLCLACS [ANKRD17], the protein stability index was 3.22 ± 0.6 under setting [1] and 3.27 ± 0.91 under setting [2].

With GACPGADEAGGGAEGDSWEEEGFG [WEE1], the protein stability index amounted to 5.35 ± 0.24 under setting [1] and 5.54 ± 0.21 under setting [2].

Regarding NVKSEKVYTRHGVPISVTGIAQVK [FLOT1], the protein stability index worked out at 3.52 ± 0.13 under setting [1] and 3.65 ± 0.2 under setting [2].

MPDTFNSRSPSVEGSLWAVGTESQ [PXN]: the protein stability index amounted to 4.31 ± 0.16 under setting [1] and 4.38 ± 0.12 under setting [2].

Turning to YFTWDEVAQRSGCEERWLVIDRKV [FADS1], the protein stability index under setting [1] is 2.65 ± 0.17 and the protein stability index under setting [2] stood at 2.82 ± 0.27.

For the sequence FEPHSGEDYSRDEDHIAHIIELLG [SRPK2], the protein stability index came out at 3.3 ± 0.19 under setting [1] and 3.63 ± 0.18 under setting [2].

As for QQPPRLLIVHIALPSWADICTNLC [M1AP], the protein stability index reads like this: under setting [1], 3 ± 0.3; under setting [2], 2.74 ± 0.51.

Take HGEADRSTLKKALPTLSHIQEAQS [YJU2B]: the protein stability index worked out at 4.81 ± 0.3 under setting [1] and 4.7 ± 0.21 under setting [2].

Consider HYGNIMYDRRVIRGNTYALQTGPL [RSPH3], for which the protein stability index runs as follows: under setting [1], 2.33 ± 0.1; under setting [2], 2.13 ± 0.32.

With DSKPESALGAPSKSPSSPQAAFTQ [TBX5], the protein stability index by setting is: under setting [1], 5.18 ± 0.36; under setting [2], 5.21 ± 0.19.

For the sequence PPWKEAFRQRCLERMRNSRDRLLN [RPAIN], the protein stability index by setting is: under setting [1], 2.66 ± 0.18; under setting [2], 2.75 ± 0.33.

As to FNDVAKFLKQGDSADETTAHKTEE [CMTM3], the protein stability index is 4.97 ± 0.23 under setting [1] and 5.13 ± 0.12 under setting [2].

With MLRQLLLAALCLAGPPAPARACQL [CCDC3], the protein stability index runs as follows: under setting [1], 3.47 ± 0.045; under setting [2], 2.76 ± 1.1.

Take GKEVSGDQIEDMFEQGKWDVFSEN [STX11]: the protein stability index was 4.33 ± 0.31 under setting [1] and 4.31 ± 0.35 under setting [2].

As to RTAFLWRGNVVLRAQMIRNEYRKL [TRIM43], the protein stability index runs as follows: under setting [1], 2.66 ± 0.29; under setting [2], 2.51 ± 0.29.

For the sequence HGFLFMIFQIGVLGFGPTYVVLAY [SOAT1], the protein stability index reads like this: under setting [1], 2.86 ± 0.85; under setting [2], 2.71 ± 0.8.

For the sequence ISPRGAGYTFGQDISETFNHANGL [PPP2CA], the protein stability index by setting is: under setting [1], 3.17 ± 0.26; under setting [2], 3.23 ± 0.41.

MFSVLSYGRLVARAVLGGLSQTDP [PPTC7] registered a protein stability index under setting [1] of 2.01 ± 0.74 and a protein stability index under setting [2] of 2.85 ± 1.3.

For the sequence RETLIIAVLVSASIANLWLWMNQ [FATE1], the protein stability index is, setting by setting: under setting [3], 2.54 ± 0.14; under setting [4], 2.31 ± 0.21.

As to LPLAYQQTSAFARQPRDELERVRV [TMEM175], the protein stability index is, setting by setting: under setting [1], 4.01 ± 0.35; under setting [2], 4.1 ± 0.27.

Regarding MQPTLLLSLLGAVGLAAVNSMPVD [CHGB], the protein stability index was 2.85 ± 0.68 under setting [1] and 2.94 ± 0.69 under setting [2].

For KKAQGKTQQNRKLTDFYPVRRSSR [KMT5A], the protein stability index came out at 3.29 ± 0.54 under setting [1] and 3.86 ± 0.39 under setting [2].

On to FATQTEELNKQVVSSSEQLQSCQA [KRT34], for which the protein stability index reads like this: under setting [1], 4.87 ± 0.28; under setting [2], 4.86 ± 0.33.

TCSICRRNFSRRSSLLRHQKLHL [ZNF75A]: the protein stability index is 3.65 ± 0.23 under setting [3] and 4.06 ± 0.43 under setting [4].

With ASLPSQKYPGPQAEGDSEGLSQGL [CHGA], the protein stability index is 5.2 ± 0.28 under setting [1] and 5.25 ± 0.17 under setting [2].

As for DFDYNAIDNANRILGPAYFVTYVF [PKD2L1], the protein stability index reads like this: under setting [1], 2.73 ± 0.6; under setting [2], 2.66 ± 0.59.

Sequence VRLMRQLLVINESIESIKWMIEEK [LURAP1L] registered a protein stability index under setting [1] of 2.75 ± 0.35 and a protein stability index under setting [2] of 2.86 ± 0.45.

On to LPRHQDQPHHQPPNRAGAPGESLE [TRAF3IP2], for which the protein stability index was 5.51 ± 0.2 under setting [1] and 5.43 ± 0.095 under setting [2].

Turning to STEKVVQETVLVEERRVVHASGDA [EPB41L3], the protein stability index under setting [1] worked out at 5.33 ± 0.23 and the protein stability index under setting [2] is 4.93 ± 0.16.

With DSSCSGQPIHLWQFLKELLLKPHS [SPDEF], the protein stability index is, setting by setting: under setting [1], 2.47 ± 0.21; under setting [2], 2.46 ± 0.16.

On to HFHRTLKEACDQHGPDLYPKFKKW [CPOX], for which the protein stability index under setting [1] came to 2.49 ± 0.21 and the protein stability index under setting [2] is 2.75 ± 0.14.

Take PFDQSGLGAEESLGLLDDYLEVAK [ATF4]: the protein stability index under setting [1] worked out at 4.28 ± 0.28 and the protein stability index under setting [2] was found to be 4.62 ± 0.24.

For SGFVGSGGWFCEGSFNGSEKETMQ [KRT36], the protein stability index is, setting by setting: under setting [1], 3.87 ± 0.36; under setting [2], 3.65 ± 0.19.

As for VPGLLLSYLMLVTVMMWPLAVYHR [RETREG3], the protein stability index reads like this: under setting [1], 3.33 ± 0.44; under setting [2], 3 ± 0.31.

As to YLEGFDPFNQSTFNNVVEQNFKNR [DLC1], the protein stability index by setting is: under setting [1], 2.89 ± 0.26; under setting [2], 3.15 ± 0.39.

For the sequence YFKCVQKDIQPYMRRMVATWMLEV [CCND2], the protein stability index under setting [1] stood at 2.71 ± 0.55 and the protein stability index under setting [2] was found to be 2.4 ± 0.45.

Regarding TCSADHLIILWKNGERESGLRSLR [WDR41], the protein stability index amounted to 2.09 ± 0.25 under setting [1] and 2.28 ± 0.17 under setting [2].

For the sequence NATWLVNSAAHLFGYRPYDKNISP [SCD], the protein stability index was 2.4 ± 0.19 under setting [1] and 2.34 ± 0.41 under setting [2].

Regarding FTGVITQGRNSLWLSDWVTSYKVM [CPXM2], the protein stability index by setting is: under setting [1], 3.21 ± 0.45; under setting [2], 2.94 ± 0.84.

Take KSFSMAKGLNARMMRGLSYSLTTS [RAB40A]: the protein stability index is, setting by setting: under setting [1], 2.35 ± 0.13; under setting [2], 2.56 ± 0.25.

With EFAEMVEREEEDDALDSEGRDSEG [KCNG1], the protein stability index worked out at 5.68 ± 0.22 under setting [1] and 5.62 ± 0.29 under setting [2].

For the sequence QAINNAINYLGAESLRPLVQTPPG [IKZF1], the protein stability index amounted to 2.39 ± 0.29 under setting [1] and 2.25 ± 0.32 under setting [2].

Turning to HGSQGTYSNTKENGINGELTSADR [MAP2], the protein stability index runs as follows: under setting [1], 5.11 ± 0.24; under setting [2], 5.17 ± 0.22.

Consider GCEDEYLVNPTCQVLVKDFTFEGF [ZER1], for which the protein stability index is, setting by setting: under setting [1], 2.89 ± 0.47; under setting [2], 2.85 ± 0.4.

Consider LRRPRPVQRTQSVPVRRPARRRQS [RASAL3], for which the protein stability index came out at 4.99 ± 0.29 under setting [1] and 5.19 ± 0.35 under setting [2].

Take INVWDVLKGSRVSILFGHENRVST [GNB5]: the protein stability index reads like this: under setting [1], 2.31 ± 0.33; under setting [2], 2.27 ± 0.34.

Regarding SSSSSSSSSSGPGHGEPDVLKDEL [TMEM40], the protein stability index came to 5.44 ± 0.15 under setting [1] and 5.42 ± 0.21 under setting [2].

For the sequence EMLSASRYPTISMVKPLLHMLLNT [ZBED1], the protein stability index reads like this: under setting [1], 2.6 ± 0.81; under setting [2], 3.02 ± 0.79.

Regarding AGGATAWGDLLGEDSLAALSSVPS [SNAP91], the protein stability index by setting is: under setting [1], 3.99 ± 0.25; under setting [2], 3.96 ± 0.11.
